Data: patent publication US8357523B2, “Beta-glucosidase variant enzymes and related polynucleotides” (Codexis, Inc., priority 2009, dated 2013)

experiment: High throughput cellobiose assay: fold improvement in cellobiase activity of CelA variants over a control enzyme (Tables 2A-2D, 3, 5, 6, 7); type: biochemical; settings: 3.3 g/l cellobiose, 50° C. and pH 6.5; compared to native CelA (SEQ ID NO: 4)
Procedure: β-glucosidase activity was also determined using a cellobiose assay, which used cellobiose as substrate. In a total volume of 100 μL, 25 μL clear media supernatant containing CelA enzyme was added to 10 g/L cellobiose (Fluka Cat. No. 22150, Sigma-Aldrich, Inc., St. Louis, Mo.) in 100 mM sodium phosphate buffer (pH 6-7) or sodium acetate buffer (pH 5-5.5). The reaction was incubated at 45-70° C. for an appropriate time (25 minutes to overnight depending on the enzyme concentration) while shaking. Glucose production was determined using an enzymatic glucose assay (K-GLUC, Megazyme, Ireland). 10 μl of each reaction was added to 190 μl GOPOD reagent (supplied as part of the K-GLUC assay kit). The reaction was incubated at 45° C. for 20 minutes and the absorbance of the solution was measured at 510 nm. The GOPOD reagent contains 50 mM Potassium phosphate buffer pH7.4, 0.011M p-hydroxybenzoic acid, 0.008% w/v sodium azide, glucose oxidase (>12,000 U/L), peroxidase (>650 U/L) and 80 mg/L 4-aminoantipyrine. The glucose oxidase enzyme in the reagent reacts with any glucose present in the sample and produces hydrogen peroxide which then reacts with the 4-aminoantipyrine to produce a quinoneimine dye in quantities proportionate with the amount of glucose present and can be measured spectrophotometrically at 510 nm. Detectable β-glucosidase activity was observed under high throughput screening conditions (i.e., pH 7, 50° C.).
Plasmid libraries containing variant CelA genes were transformed into B. megaterium and plated on Luria-Bertani (LB) agar plates containing 3 μg/mL tetracycline with a DM3 regeneration media overlay (400 mM sodium succinate dibasic, pH 7.3, 0.5% casamino acids, 0.5% yeast extract, 0.4% K2HPO4, 0.2% KH2PO4, 20 mM MgCl2, 0.5% glucose and 0.2% BSA). After incubation for at least 18 hours at 30° C., colonies were picked using a Q-bot® robotic colony picker (Genetix USA, Inc., Beaverton, Oreg.) into shallow, 96-well well microtiter plates containing 180 μL, LB and 10 μg/mL tetracycline. Cells were grown overnight at 37° C. with shaking at 200 rpm and 85% humidity. 10 μL of this culture was then transferred into 96-well microtiter plates (deep well) containing 390 μL A5-glucose-xylose medium and 10 μg/mL tetracycline as described in example 2. The plates were then incubated at 37° C. with shaking at 250 rpm and 85% humidity overnight (˜18-24 hours). The deep plates were centrifuged at 4000 rpm for 15 minutes and the clear media supernatant containing the secreted CelA enzyme was used for the high throughput pNPG or cellobiose assay of Example 5.
The CelA libraries were screened in high throughput using the cellobiose assay of Example 5 (Substrate: cellobiose; pH: 5-7; temperature: 45-72° C.; time: 2-24 hrs) for the identification of improved variants.
In shallow, 96-well microtiter plates 25 μL of media supernatant was added to 75 μL of […] cellobiose in 150 mM sodium acetate buffer pH 5-5.5 or 150 mM sodium phosphate buffer pH6-7. After sealing with aluminum/polypropylene laminate heat seal tape (Velocity 11 (Menlo Park, Calif.), Cat#06643-001), the plates were shaken at 45-65° C. for up to 24 hrs. The plates were centrifuged for 5 minutes at 4000 rpm. In shallow well clear microtiter plates, 10 μL of the reaction mixture was added to 190 μL of GOPOD reagent (as in example 5B) per well. The solutions were incubated at 45° C. for 1 hour and absorbance was measured at 510 nm for the identification of active CelA variants.
Improved CelA variants were identified from the high throughput screening of various CelA variant libraries as described in Example 7, using the cellobiose assay of Example 5 using 3.3 g/l cellobiose at temperatures from 50°-55° C. at a pH in the range of 5.3-6.5. Tables 2A, 2B, 2C, and 2D and Table 3 depict the improvement in activities of CelA variants encompassed by the invention. The assay conditions are indicated in each table. […]

Row | Molecule | Fold improvement over wildtype CelA
1 | 1 (protein) STAIAQEGAAPAAILHPEKWPRPATQRLIDPAVEKRVDALLKQLSVEEKVGQVIQGDIGTITPEDLRKYPLGSILAGGNSGPNGDDRAPPKEWLDLADAFYRVSLEKRPGHTPIPVLFGIDAVHGHGNIGSATIFPHNIALGATHDPELLRRIGEVTAVEMAATGIDWTFAPALSVVRDDRWGRTYEGFSEDPEIVAAYSAAIVESVQGKFGSKDFMAPGRIVASAKHFLADGGTDQGRDQGDARISEDELIRIHNAGYPPAIDAGVLTVMASFSSWQGIKHHGHKQLLTDVLKGQMGFNGFIVGDWNAHDQVPGCTKFNCPTSLIAGLDMYMAADSWKQLYENTLAQVKDGTIPMARLDDAVRRILRVKVLAGLFEKPAPKDRPGLPGLETLGSPEHRAVGREAVRKSLVLLKNDKGTLPLSPKARVLVAGDGADNIGKQSGGWTISWQGTGNRNDEFPGATSILGGIRDAVADAGGSVEFDVAGQYKTKPDVAIVVFGEEPYAEFQGDVETLEYQPDQKQDLALLKKLKDQGIPVVAVFLSGRPMWVNPELNASDAFVAAWLPGTEGGGVADVLFTDKAGKVQHDFAGKLSYSWPRTAAQTTVNRGDADYNPLFAYGYGLTYKDKSKVGTLPEESGVPAEARQNAGIYFRAGALRLPGRFL | + (+ = 1.1 to 2.0 fold improvement over native CelA (SEQ ID NO: 4))
2 | 4 (protein) STAIAQEGAAPAAILHPEKWPRPATQRLIDPAVEKRVDALLKQLSVEEKVGQVIQGDIGTITPEDLRKYPLGSILAGGNSGPNGDDRAPPKEWLDLADAFYRVSLEKRPGHTPIPVLFGIDAVHGHGNIGSATIFPHNIALGATHDPELLRRIGEVTAVEMAATGIDWTFAPALSVVRDDRWGRTYEGFSEDPEIVAAYSAAIVEGVQGKFGSKDFMAPGRIVASAKHFLADGGTDQGRDQGDARISEDELIRIHNAGYPPAIDAGVLTVMASFSSWQGIKHHGHKQLLTDVLKGQMGFNGFIVGDWNAHGQVPGCTKFNCPTSLIAGLDMYMAADSWKQLYENTLAQVKDGTIPMARLDDAVRRILRVKVLAGLFEKPAPKDRPGLPGLETLGSPEHRAVGREAVRKSLVLLKNDKGTLPLSPKARVLVAGDGADNIGKQSGGWTISWQGTGNRNDEFPGATSILGGIRDAVADAGGSVEFDVAGQYKTKPDVAIVVFGEEPYAEFQGDVETLEYQPDQKQDLALLKKLKGQGIPVVAVFLSGRPMWVNPELNASDAFVAAWLPGTEGGGVADVLFTDKAGKVQHDFAGKLSYSWPRAAAQTTVNRGDADYNPLFAYGYGLTYKDKSKVGTLPEESGVPAEARQNAGIYFRAGALRLPGRFL | + (+ = 1.1 to 2.0 fold improvement over native CelA (SEQ ID NO: 4))
3 | 3 (protein) STAIAQEGAAPAAILHPEKWPRPATQRLIDPAVEKRVDALLKQLSVEEKVGQVIQGDIGTITPEDLRKYPLGSILAGGNSGPNGDDRAPPKEWLDLADAFYRVSLEKRPGHTPIPVLFGIDAVHGHGNIGSATIFPHNIALGATHDPELLRRIGEVTAVEMAATGIDWTFAPALSVVRDDRWGRTYEGFSEDPEIVAAYSAAIVEGVQGKFGSKDFMAPGRIVASAKHFLADGGTDQGRDQGDARISEDELIRIHNAGYPPAIDAGVLTVMASFSSWQGIKHHGHKELLTDVLKGQMGFNGFIVGDWNAHDQVPGCTKFNCPTSLIAGLDMYMAADSWKQLYENTLAQVKDGTIPMARLDDAVRRILRVKVLAGLFEKPAPKDRPGLPGLETLGSPEHRAVGREAVRKSLVLLKNDKGTLPLSPKARVLVAGDGADNIGKQSGGWTISWQGTGNRNDEFPGATSILGGIRDAVADAGGSVEFDVAGQYKTKPDVAIVVFGEEPYAEFQGDVETLEYQPDQKQDLALLKKLKDQGIPVVAVFLSGRPMWVNPELNASDAFVAAWLPGTEGGGVADVLFTDKAGKVQHDFAGKLSYSWPRTAAQTTVNRGDADYNPLFAYGYGLTYKDKSKVGTLPEESGVPAEARQNAGIYFRAGALRLPGRFL | + (+ = 1.1 to 2.0 fold improvement over native CelA (SEQ ID NO: 4))
4 | 6 (protein) STAIAQEGAAPAAILHPEKWPRPATQRLIDPAVEKRVDALLKQLSVEEKVGQVIQGDIGTITPEDLRKYPLGSILAGGNSGPNGDDRAPPKEWLDLADAFYRVSLEKRPGHTPIPVLFGIDAVHGHGNIGSATIFPHNIALGATHDPELLRRIGEVTAVEMSATGIDWTFAPALSVVRDDRWGRTYEGFSEDPEIVAAYSAAIVEGVQGKFGSKDFMAPGRIVASAKHFLADGGTDQGRDQGDARISEDELIRIHNAGYPPAIDAGVLTVMASFSSWQGIKHHGHKQLLTDVLKGQMGFNGFIVGDWNAHDQVPGCTKFNCPTSLIAGLDMYMAADSWKQLYENTLAQVKDGTIPMARLDDAVRRILRVKVLAGLFEKPAPKDRPGLPGLETLGSPEHRAVGREAVRKSLVLLKNDKGTLPLSPKARVLVAGDGADNIGKQSGGWTISWQGTGNRNDEFPGATSILGGIRDAVADAGGSVEFDVAGQYKTKPDVAIVVFGEEPYAEFQGDVETLEYQPDQKQDLALLKKLKDQGIPVVAVFLSGRPMWVNPELNASDAFVAAWLPGTEGGGVADVLFTDKAGKVQHDFAGKLSYSWPRTAAQTTVNRGDADYNPLFAYGYGLTYKDKSKVGTLPEESGVPAEARQNAGIYFRAGALRLPGRFL | + (+ = 1.1 to 2.0 fold improvement over native CelA (SEQ ID NO: 4))
5 | 5 (protein) STAIAQEGAAPAAILHPEKWPRPATQRLIDPAVEKRVDALLKQLSVEEKVGQVIQGDIGTITPEDLRKYPLGSILAGGNSGPNGDDRAPPKEWLDLADAFYRVSLEKRPGHTPIPVLFGIDAVHGHGNIGSATIFPHNIALGATRDPELLRRIGEVTAVEMAATGIDWTFAPALSVVRDDRWGRTYEGFSEDPEIVAAYSAAIVEGVQGKFGSKDFMAPGRIVASAKHFLADGGTDQGRDQGDARISEDELIRIHNAGYPPAIDAGVLTVMASFSSWQGIKHHGHKQLLTDVLKGQMGFNGFIVGDWNAHDQVPGCTKFNCPTSLIAGLDMYMAADSWKQLYENTLAQVKDGTIPMARLDDAVRRILRVKVLAGLFEKPAPKDRPGLPGLETLGSPEHRAVGREAVRKSLVLLKNDKGTLPLSPKARVLVAGDGADNIGKQSGGWTISWQGTGNRNDEFPGATSILGGIRDAVADAGGSVEFDVAGQYKTKPDVAIVVFGEEPYAEFQGDVETLEYQPDQKQDLALLKKLKDQGIPVVAVFLSGRPMWVNPELNASDAFVAAWLPGTEGGGVADVLFTDKAGKVQHDFAGKLSYSWPRTAAQTTVNRGDADYNPLFAYGYGLTYKDKSKVGTLPEESGVPAEARQNAGIYFRAGALRLPGRFL | + (+ = 1.1 to 2.0 fold improvement over native CelA (SEQ ID NO: 4))
6 | 2 (protein) STAIAQEGAAPAAILHPEKWPRPATQRLIDPAVEKRVDALLKQLSVEEKVGQVIQGDIGTITPEDLRKYPLGSILAGGNSGPNGDDRAPPKEWLDLADAFYRVSLEKRPGHTPIPVLFGIDAVHGHGKIGSATIFPHNIALGATHDPELLRRIGEVTAVEMAATGIDWTFAPALSVVRDDRWGRTYEGFSEDPEIVAAYSAAIVEGVQGKFGSKDFMAPGRIVASAKHFLADGGTDQGRDQGDARISEDELIRIHNAGYPPAIDAGVLTVMASFSSWQGIKHHGHKQLLTDVLKGQMGFNGFIVGDWNAHDQVPGCTKFNCPTSLIAGLDMYMAADSWKQLYENTLAQVKDGTIPMARLDDAVRRILRVKVLAGLFEKPAPKDRPGLPGLETLGSPEHRAVGREAVRKSLVLLKNDKGTLPLSPKARVLVAGDGADNIGKQSGGWTISWQGTGNRNDEFPGATSILGGIRDAVADAGGSVEFDVAGQYKTKPDVAIVVFGEEPYAEFQGDVETLEYQPDQKQDLALLKKLKDQGIPVVAVFLSGRPMWVNPELNASDAFVAAWLPGTEGGGVADVLFTDKAGKVQHDFAGKLSYSWPRTAAQTTVNRGDADYNPLFAYGYGLTYKDKSKVGTLPEESGVPAEARQNAGIYFRAGALRLPGRFL | + (+ = 1.1 to 2.0 fold improvement over native CelA (SEQ ID NO: 4))
